From the DeepSol protein solubility set

Assay: soluble on expression in E. coli; label from the status in PepcDB or PDB records

Sequence | soluble on expression in E. coli
MSQAFAQPLSGYQIGDEIKNFSMLNVTNQTVLSLTDYNDQKVVVIIFTNNNCAYAKLYEQRIANLAKQYNTSGVAFLLVNPSVSNSDKFETIEAMRKKIQNDKSLYPYLADTTQSLAISFGVQRLPDAFVLKKMETSFRLVYKGSIDDNPQSAEDVSNRFLSDAISAMVLNRSIKVADTRAVGCLLKPY | not soluble
MPAKERFFGFHPCKLVEQVEDCVRDLLEDALDGLETSLFRECALAFDALQENAVTSEHEHAKRLLLQQGLMRLRDALFTAFYDQMDRLQVYLLRNVFHIPPGLRIPNVNTSEDLVENWEQALGIDPSSVQIDANAEDEHAVDQELVALRQSLRVARQRLQRLCRERSVLEGAFHRLEGALQSRLASTLIPTEPEDPSGDCDALAKQVVTIARAVSELEAVVRSCRDQFLGDRSSAASGGAPPSGTVPAAAGGSDVGAQGALVRPPLELERIFDAHTKATRVDSLDAVDALRRALHRSC | not soluble
MATGNRNPENFTSLSPIVKAPITDTLSVPLSQQGRICGFFESQFYRCMEAYGAKMGRKYCDLEHRDFQECVTGDKQKKRADAIREQRCKLFLDGKIAKPYVDNHPEPGQFKTDHFQWNRIN | not soluble
MGSSHHHHHHSQDPNSAAPAAEAPLSHVQQALAELAKPKDDPTRKHVCVQVAPAVRVAIAETLGLAPGATTPKQLAEGLRRLGFDEVFDTLFGADLTIMEEGSELLHRLTEHLEAHPHSDEPLPMFTSCCPGWIAMLEKSYPDLIPYVSSCKSPQMMLAAMVKSYLAEKKGIAPKDMVMVSIMPCTRKQSEADRDWFCVDADPTLRQLDHVITTVELGNIFKERGINLAELPEGEWDNPMGVGSGAGVLFGTTGGVMEAALRTAYELFTGTPLPRLSLSEVRGMDGIKETNITMVPAPGSKFEELLKHRAAARAEAAAHGTPGPLAWDGGAGFTSEDGRGGITLRVAVANGLGNAKKLITKMQAGEAKYDFVEIMACPAGCVGGGGQPRSTDKAITQKRQAALYNLDEKSTLRRSHENPSIRELYDTYLGEPLGHKAHELLHTHYVAGGVEEKDEKK | soluble
MRFITETELRDLYKAEPFTAYTLEPRTKLTPEARQFLVDRGIKLAEAQDCKSKSTGNGKSGTEQESWNVLRLRRRMESLESLFLMVGANLLSGGSTVLAEEVFALGRCFSEVKKTAWEQTSPVNLQFQDWSEAEMKNCSTYLGKHFDITEFHVRTENGAAIASLNHLRATLRELESAVLEAYWDEEFNVCSRQDLIEKINLIMNILCVMIWKCLGGQQCKT | not soluble
GSPAAAPPTLPPYFMKGSIIQLANGELKKVEDLKTEDFIQSAEISNDLKIDSSTVERIEDSHSPGVAVIQFAVGEHRAQVSVEVLVEYPFFVFGQGWSSCCPERTSQLFDLPCSKLSVGDVCISLTLKNLKNG | soluble
MQLKVPEHQVAGHIAKDGKPGPLVDDKGRFFKPLQGDSRGEIEVKFYESFSSNTEVPEHIHRYFPVYHGTQAVEGSDGAAMMVLENLLAEYTKPSVMDVKMGSRTWYPDASEEYIQKCLKKDTGTTTVSSGFRISGFEVYDHKESSFWKPERKLLRGLDVDGARLTLRKFVSSNSLSDTGSKPDSAFASSVYGGSHGILTQLLELKTWFENQTLYHFNSCSILMVYENESILKGNDDDARPQVKLVDFAHVLDGNGVIDHNFLGGLCSFINFIREILQSPDESADS | soluble
MGSDKIHHHHHHMPNIEKYEIFLDFNGNEYEGVEKIYLNSEEEKLELDSVNLEIRSVKSDGKDTKFELKGEKLVIYGKIERELEIKFKGKASRDSILGIYVAPYDGKGMITTQFEAVYARRFIPCFDHPAMKARFKLSVRVQKGLKVISNMPVERIEEDVDGKVIYRFQETPKMSTYLLYLGIDEFEEISDNSKQPTVILATVPGKSKRGLFAINVARKVIEFYEKYFEIPYQLPKVHLIQVPEFAAGAMENWGAITFRETALLADDSSSISQKFRVAEVVAHELAHQWFGNLVTLKWWDDLWLNESFATFMSYKSIKHLFPQWDSEGHLIYDESIGALEDDSLSTTHPIEAHVKDPHEIEQMFDNISYGKGASILKMIEAYVGEENFRRGVVNYLNSFKFGNAEGKDLWNSISNAAGQSIGEIMADWITKPGYPVIFVNAYGNSIRFSQKRFTLLDSGLNEVYKVPITYEINDKFGTLLLDKESAEIRLDEGLKSIKVNINRTGFYRVLYDSLNLAFSSKLNAYEELGLVNDYWNFLLADLIDAKTYFGVIGRFVYTSNSFVSREITSQLLTLYYLFKKNYGKDFLVNQVKIFRKANDDLGKLAYSTVISALARMDEEFALGLSTLFDQYENIDSNIKEAVAIAYAVTNNDFNTLLEKYKRYTIDEEKNRILSAISSLRDPSIVVKVFSLIFERNIKAQDTRFVISSLLHNPHIREEVCSYLMNNFEEVKKFVNTVYGGPWGLGSIVRSMSFCGVDKPKDIIDFLEKVKFKEIERPIKESEERIKVYSRLKQNLP | not soluble
MSTLYHTCDKIEQRIIWIDCEMTGLDVEKQTLCEIALIVTDSELNTIATGPDIVIHQPKEVLDNMEEWPRNTFHENGLMEKIIASKYSMADAENEVIDFLKLHALPGKSPIAGNSIYMDRLFIKKYMPKLDKFAHYRCIDVSTIKGLVQRWYPDYKHPKKQCTHRAFDDIMESIAELKNYRESIFVKSTASSF | not soluble
MGSDKIHHHHHHVVRKINFMNLIELLKKIKRKILAQMFNLNYRPYTHTTVIFESFGGRQISDSPLAIYKELKKTHPEYRLIWVVNKGLATQAEKNGYDYVIRGSFKWVRTIEKAQVWVENARLPQWVRKPDHIKLIQTWHGTPLKKLGLDIKNVVMPGTNTERYHQNFVREANRWDVLISPNTYSTNIFRQAFGYQNKIVEIGYPRNDKLANPTKEEIKLLKQKLGIPLDKKVIMYAPTYRDNQFFQKGKYSFELPFSLKEFQERFGSNAVLLLRMHYLIANSMDISGFEDFAYDVSSYADISELYLVSDLLITDYSSVFFDYAYLKRPILFYPYDYEIYKDELRGFYLDYQKDLPGKIAYNSVDLYDEIENELKENDISNNQQFEMFYKRFCGLNAGNASKRIVEEIERNL | not soluble
MGSDKIHHHHHHMAAFQTAAQLARAVQSGETTPQQLLHGALARAEAVRGLNALVSLNSHAEEQAAAVQGRMQAGETLPLAGVPIVVKDNINVTGTRTTCGSRMLANYVSPYTATAAQKLQGAGAVIVGKANMDEFAMGSSTESSASGPTLNPWDHERVPGGSSGGSAVAVAAGISPVSLGSDTGGSVRQPAALCGVYGFKPTYGRVSRYGLVAYASSLDQIGPFARSAEDLALLMNVIAGHDPRDATSLDAPARFAVGGADSLRGLRVGVIRESLGGNTPGVEAALGATLDALRGAGAVVGEVSIPELEYAIAAYYLIAMPEASSNLARYDGMVYGERVPGGDVTRSMTLTREQGFGQEVQRRILLGTYALSSGYYDAYYAKAMKVRRLIADEFTTAFGQYDVLVTPTSPFPAFRRGEKASDPLAMYAADVDTVAVNLAGLPALSVPAGFEEVDGKRLPVGVQFIAPALQDERLLALAGALEAVGAVQLEMPQD | not soluble
MGSDKIHHHHHHMSSTHTGIEWTDKTWNPTTGCDKVSPGCRYCYAEALTERFPQSFPTGFKLNLHPERLEQPKRWRTPSRIFVNSMSDLFHEDVPFSFLQEIFSIMRETPWHIYQILTKREENLVDLAPKLEWTENIWMGVSVESQRYTYRIDALRKVPAAVRFLSCEPLLESLNLDLQNIDWVIVGGESGYNHRPVKPEWIREILQQTREAEVAFFFKQWGGKHSKAGGRMLDDHTWEEMPKAWRKHIIKWQKKFHGQPKLHELEQKYLMSTK | not soluble
MDIWYGTAAVPKDLDNSAVTIGVFDGVHRGHQKLINATVEKAREVGAKAIMVTFDPHPVSVFLPRRAPLGITTLAERFALAESFGIDGVLVIDFTRELSGTSPEKYVEFLLEDTLHASHVVVGANFTFGENAAGTADSLRQICQSRLTVDVIDLLDDEGVRISSTTVREFLSEGDVARANWALGRHFYVTGPVVRGAGRGGKELGFPTANQYFHDTVALPADGVYAGWLTILPTEAPVSGNMEPEVAYAAAISVGTNPTFGDEQRSVESFVLDRDADLYGHDVKVEFVDHVRAMEKFDSVEQLLEVMAKDVQKTRTLLAQDVQAHKMAPETYFLQAES | soluble
AIAHAASFRDCKAWQSDGLPLSSSSNEACKLYDAILSQYVTWRNDETLGGIEGCITSIKAADPDFVMGHVISTGLELVGTGSSVLRDERLASAVRRTVELADTQQLTSREKNHVKAVQLFSKGSVHRNLTFMFNG | soluble
MAHHHHHHMFNHDIIKEKDNYKQKIRTLYRNEKEAIKPCNHYDMKEEEKKKSGKIKRSIKLFGTPAVHGLSSHINNNSGTQLYYNFHNVLKRDKEKIQDDNLNYTLERDAGEDNTMQSIHESDKTETQECGKHYLYNKFDIYKSYLSYKKDLIRNEYDQDYKGITTSLLKGKDTHDDNKDNKDNDDNDDNDDNNDHNDHYDITRDDPCDDMCDDMCEDMCDDMCDDMCDDPCDDMCDDPCDDMCDDPCDDMCDDPCDDPYDHPYEEEKYSTYCDKGYLRNFLKNAIIRPNLQTFVGRKIISFLNEKERDIFSLTCKILFFEVYSVSNLKTLYKYQFISNEKRSFIWKAILLEDNTYISEEDYKELRNRKCLYDKAIEKDINRTFPKHPFFINKNMNMQDKLLDILKVCSLYFERIGYCQGMNYIAGILLLVFRKNIDTIRCFISMLKNYNIKGMFSYNFPQLKKIIYQLNLLIKAYIPKLFYYFKRKKIKIDFFCVNWFLTLFSQDLSFENTLKLWDLFFLFGMKILIKLTLILLYYHEDNIIHLSYDEALTYLKAITKTPFIDYLFQDDHFFTHLKKFKITNSMLTQIIMLKKSRQKINLLVKENNGKLRCSIQIKQNNKHTFTSKIKEGFRNLFKLNENYVDYINYFYQKGDGEENNGNQNNGEEYNGKEYNGNQNNGNQNNGKQNNGNQNNGKQNNGNQNNVKQNNGEDTNKNNNNDDINNNICHNNYSSTNFYKNFFQHFNCGNIFNNPNYSNEIVLTNTTCLSVHFNSNVLCNSQNIKNKNTIHSLENIKEEHDHTKNPSNFFLETNTYYDLNLTKSVDGNN | soluble
MKVVELKNVKKIYPDGTIALKGVSLSVEEGEFLGVMGPSGSGKSTLLHLIGGLDKPSEGIVKVFGKEINHLDEDELAEMRKRKIAYVFQFYYLLEDFSVLENLTLIGELAGIKNPKKKALELLDFLRLSHRINHKPYQLSGGEQQRVAIGRALMVEPKLILADEPTGNLDSKEGFRIFELFKELNEKGITFVVATHNDSLKPFFGRIINLRDGEIVTQR | soluble
MAHHHHHHMTETVLRLGPQEYAHLTNLNTNTTELILGPLNRPVASHESVALPPTKFVVVPPTQYCLIANPHRTAVDPTTGIAQPVRDAYGQVQVRSGEEEYRWHVPPFPLYPEEAVVKLEDLKVLSARAALQIQVLAAYNVPACSASDSMPSPVRREAGERYSSAAPAPTTLALRSTSRRR | soluble
SMSGMKSSKSKDVLSAAEVMQWSQSLEKLLANQTGQNVFGSFLKSEFSEENIEFWLACEDYKKTESDLLPCKAEEIYKAFVHSDAAKQINIDFRTRESTAKKIKAPTPTCFDEAQKVIYTLMEKDSYPRFLKSDIYLNLLNDLQA | soluble
QVQSVEVMRDSYGVPHVFADSHYGLYYGYGYAVAQDRLFQMDMARRSFVGTTAAVLGPGEQDAYVKYDMQVRQNFTPASIQRQIAALSKDERDIFRGYADGYNAYLEQVRRRPELLPKEYVDFDFQPEPLTDFDVVMIWVGSMANRFSDTNLEVTALAMRQSLEKQHGPERGRALFDELLWINDTTAPTTVPAPAA | soluble
MSLNEPLPDRQTELPAVKKENHGEYLQPRDLSKIPNTAFGDQVKRGYSLFVNSQQMRGKYVGNEQNCVNCHMEAGRKANAAPLWAAYMAYPAYRKKNDRVNSYADRIQGCFEYSMNGKAPAYDSPEIVALSAYAYWLAMGGLLDEGHHHHHH | soluble
